From paper doi:10.1101/2024.08.19.608523 (bioRxiv, 2024)

Each molecule was assayed against microtubules (polymerized porcine brain tubulin) (porcine) (UniProt Q2XVP4) (assay: co-sedimentation).

Molecule | Kd
GAS2-GAR G255A (from UniProt P11862 198-314) (domain or fragment) | 2.69 µM
GAS2-GAR K266E (from UniProt P11862 198-314) (domain or fragment) | 10.6 µM
GAS2-GAR R242E (from UniProt P11862 198-314) (domain or fragment) | 5 µM
GAS2-GAR R252E (from UniProt P11862 198-314) (domain or fragment) | 47 µM

Continued by falling Kd, values first:

Kd | Molecule
27 µM | GAS2-GAR W257E (from UniProt P11862 198-314) (domain or fragment)
9.6 µM | GAS2-GAR G255E (from UniProt P11862 198-314) (domain or fragment)
0.69 µM | GAS2-GAR domain (residues 198-314) (domain or fragment) STGNLLDDAVKRISEDPPCKCPTKFCVERLSQGRYRVGEKILFIRMLHNKHVMVRVGGGWETFAGYLLKHDPCRMLQISRVDGKTSPVQSKSPTLKDMNPDNYLVVSATYKAKKEIK

Molecular target: the molecule itself
Assay: SEC

Molecule | stoichiometry N
GAS2-GAR domain (residues 198-314) (domain or fragment) STGNLLDDAVKRISEDPPCKCPTKFCVERLSQGRYRVGEKILFIRMLHNKHVMVRVGGGWETFAGYLLKHDPCRMLQISRVDGKTSPVQSKSPTLKDMNPDNYLVVSATYKAKKEIK | 2
